Source: US11723913

Molecular target: murine protein S (mouse) (UniProt Q08761)
Assay: cell-based or functional assay

Sequence of UniProt Q08761 (Q08761 42-675 limits assumed): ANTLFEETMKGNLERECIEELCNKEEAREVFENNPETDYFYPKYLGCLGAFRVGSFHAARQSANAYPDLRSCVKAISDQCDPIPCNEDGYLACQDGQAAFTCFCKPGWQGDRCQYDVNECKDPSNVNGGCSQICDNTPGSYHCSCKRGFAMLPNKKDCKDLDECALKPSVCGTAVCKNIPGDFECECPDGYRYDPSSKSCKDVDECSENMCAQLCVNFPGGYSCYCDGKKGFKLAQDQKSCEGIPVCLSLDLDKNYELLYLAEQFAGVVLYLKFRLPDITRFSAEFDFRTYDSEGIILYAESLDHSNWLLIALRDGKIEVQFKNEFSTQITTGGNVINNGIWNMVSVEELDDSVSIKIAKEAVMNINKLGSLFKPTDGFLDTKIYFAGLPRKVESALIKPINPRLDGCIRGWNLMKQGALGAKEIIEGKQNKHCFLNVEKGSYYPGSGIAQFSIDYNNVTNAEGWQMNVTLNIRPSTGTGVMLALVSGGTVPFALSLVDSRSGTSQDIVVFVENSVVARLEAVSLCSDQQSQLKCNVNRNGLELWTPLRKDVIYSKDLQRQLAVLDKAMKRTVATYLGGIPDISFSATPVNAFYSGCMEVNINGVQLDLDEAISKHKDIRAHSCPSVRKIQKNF

Substance “wild type recombinant mouse APC (wt-rmAPC) (from UniProt P33587 42-460)” has a reduction of ETP in Ca2+ ionophore-activated PRP of WT mice at 8 nM APC of 90%.
For “mutated recombinant mouse APC (rmAPC L38D) (from UniProt P33587 42-460)”, the reduction of ETP in Ca2+ ionophore-activated PRP of WT mice at 8 nM APC was 30%.
